Holding throughout (experiment): cell-based or functional assay
Assay [1] has as its target Four tandem FKBP12 (Fpk) domains encoded by pBP0722 (pSH1-Fpk-Fpk′.LS.Fpk″.Fpk′″.LS.HA) (Homo sapiens (Human)) (UniProt P62942).
Assay [2] concerns the target FKBP12v36-ΔCaspase-9 encoded by the retroviral vectors pSFG-iC9.T2A-ΔCD19 (pBP0220) and its FRBL derivatives pBP0755, pBP0756, pBP0757 (human).
The target in assay [3] is MyD88-CD40 fused to wild-type FKBP12 and FRBL, encoded by pBP1440.
Assay [4] deals with First generation CD19-CAR fused to two tandem FRBl domains, co-expressed with inducible Caspase-9.
For assay [5], the target named is First generation Her2-CAR fused to two tandem FRBl domains.
Assay [6] deals with FKBP.FRB.ΔC9 encoded by pBP1311 (pSFG.FKBP.FRB.ΔC9.T2A-ΔCD19).
The target in assay [7] is Four tandem FRBL domains encoded by pBP0725 (pSH1-FRBl.FRBl′.LS.FRBl″.FRBl′″).
Sequence of Four tandem FRBL domains encoded by pBP0725 (pSH1-FRBl.FRBl′.LS.FRBl″.FRBl′″) (chain, as listed by the source limits assumed): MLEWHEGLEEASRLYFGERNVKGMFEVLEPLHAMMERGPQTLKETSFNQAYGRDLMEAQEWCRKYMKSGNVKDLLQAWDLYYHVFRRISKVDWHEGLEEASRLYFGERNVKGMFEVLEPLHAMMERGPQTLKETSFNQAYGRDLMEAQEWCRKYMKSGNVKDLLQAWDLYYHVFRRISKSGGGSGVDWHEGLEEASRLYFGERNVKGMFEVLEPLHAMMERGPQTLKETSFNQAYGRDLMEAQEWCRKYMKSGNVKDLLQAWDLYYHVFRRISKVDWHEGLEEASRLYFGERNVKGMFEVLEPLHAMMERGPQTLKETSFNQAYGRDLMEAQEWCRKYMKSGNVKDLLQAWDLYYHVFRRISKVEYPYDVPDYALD
The target in assay [8] is Non-myristoylated inducible MyD88/CD40 with two FKBP12v36 domains, encoded by pBP0606 (pSFG-k-ΔMyr.iMC.2A-ΔCD19) (human).
Sequence of Non-myristoylated inducible MyD88/CD40 with two FKBP12v36 domains, encoded by pBP0606 (pSFG-k-ΔMyr.iMC.2A-ΔCD19) (human) (chain, as listed by the source mutant limits assumed): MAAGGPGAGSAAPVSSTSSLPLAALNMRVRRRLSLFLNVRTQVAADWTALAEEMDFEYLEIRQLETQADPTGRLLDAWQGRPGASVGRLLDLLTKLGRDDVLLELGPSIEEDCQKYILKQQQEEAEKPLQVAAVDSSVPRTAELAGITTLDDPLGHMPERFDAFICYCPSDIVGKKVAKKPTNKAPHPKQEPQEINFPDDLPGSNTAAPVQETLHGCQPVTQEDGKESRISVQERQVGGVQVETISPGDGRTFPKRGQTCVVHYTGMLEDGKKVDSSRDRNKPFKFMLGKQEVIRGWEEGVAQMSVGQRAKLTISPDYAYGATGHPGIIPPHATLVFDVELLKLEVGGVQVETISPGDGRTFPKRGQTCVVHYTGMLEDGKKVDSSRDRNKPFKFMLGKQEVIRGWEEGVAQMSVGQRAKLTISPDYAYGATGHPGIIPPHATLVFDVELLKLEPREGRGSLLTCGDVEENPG
In assay [9] the target is FRB.FKBP.ΔC9 encoded by pBP1310 (pSFG.FRB.FKBP.ΔC9.T2A-ΔCD19).

Some results are limits rather than exact numbers.

Sequence of MyD88-CD40 fused to wild-type FKBP12 and FRBL, encoded by pBP1440 (chain): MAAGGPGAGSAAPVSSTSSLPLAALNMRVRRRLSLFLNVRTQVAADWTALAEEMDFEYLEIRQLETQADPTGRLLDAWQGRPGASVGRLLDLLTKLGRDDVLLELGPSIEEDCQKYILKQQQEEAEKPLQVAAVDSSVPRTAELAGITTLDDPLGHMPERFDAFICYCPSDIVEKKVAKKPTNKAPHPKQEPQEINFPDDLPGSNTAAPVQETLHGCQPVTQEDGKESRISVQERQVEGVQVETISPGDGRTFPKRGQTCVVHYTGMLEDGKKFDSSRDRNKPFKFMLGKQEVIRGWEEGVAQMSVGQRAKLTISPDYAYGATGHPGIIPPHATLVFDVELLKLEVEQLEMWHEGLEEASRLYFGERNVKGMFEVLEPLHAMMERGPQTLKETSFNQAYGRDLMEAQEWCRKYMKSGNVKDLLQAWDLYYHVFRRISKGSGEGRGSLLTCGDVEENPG
Sequence of Two FRBL domains fused to ΔCaspase-9, encoded by pBP0668 (pSFG-FRBlx2.Caspase9.2A-Q.8stm.CD3zeta) (chain): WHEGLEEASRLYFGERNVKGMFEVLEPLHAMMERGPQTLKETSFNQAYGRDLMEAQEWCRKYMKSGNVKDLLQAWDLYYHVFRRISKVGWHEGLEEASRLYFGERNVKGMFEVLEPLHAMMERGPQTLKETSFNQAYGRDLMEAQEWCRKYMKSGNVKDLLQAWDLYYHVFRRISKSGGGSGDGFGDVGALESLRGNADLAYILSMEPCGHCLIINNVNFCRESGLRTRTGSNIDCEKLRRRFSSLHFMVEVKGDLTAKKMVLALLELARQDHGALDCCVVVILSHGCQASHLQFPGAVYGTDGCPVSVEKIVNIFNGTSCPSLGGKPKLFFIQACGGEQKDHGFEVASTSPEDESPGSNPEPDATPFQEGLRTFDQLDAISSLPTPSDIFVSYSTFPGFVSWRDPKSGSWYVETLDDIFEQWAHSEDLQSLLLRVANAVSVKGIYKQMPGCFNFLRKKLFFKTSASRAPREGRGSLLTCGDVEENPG
Sequence of FKBP.FRB.ΔC9 encoded by pBP1311 (pSFG.FKBP.FRB.ΔC9.T2A-ΔCD19) (chain): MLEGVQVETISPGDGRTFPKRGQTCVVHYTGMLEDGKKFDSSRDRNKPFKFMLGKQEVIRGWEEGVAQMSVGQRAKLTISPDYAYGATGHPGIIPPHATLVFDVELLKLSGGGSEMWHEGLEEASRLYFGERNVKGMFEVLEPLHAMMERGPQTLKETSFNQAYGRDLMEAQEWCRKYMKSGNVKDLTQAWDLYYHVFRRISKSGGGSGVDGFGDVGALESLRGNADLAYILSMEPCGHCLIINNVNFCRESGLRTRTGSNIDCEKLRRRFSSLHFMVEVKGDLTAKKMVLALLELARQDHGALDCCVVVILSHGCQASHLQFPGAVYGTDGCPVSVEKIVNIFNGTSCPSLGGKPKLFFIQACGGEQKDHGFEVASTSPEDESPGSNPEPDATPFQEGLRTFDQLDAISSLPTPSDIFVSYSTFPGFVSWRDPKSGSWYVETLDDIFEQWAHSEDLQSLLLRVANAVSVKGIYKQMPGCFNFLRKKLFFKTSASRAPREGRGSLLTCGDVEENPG
Sequence of FRB.FKBP.ΔC9 encoded by pBP1310 (pSFG.FRB.FKBP.ΔC9.T2A-ΔCD19) (chain): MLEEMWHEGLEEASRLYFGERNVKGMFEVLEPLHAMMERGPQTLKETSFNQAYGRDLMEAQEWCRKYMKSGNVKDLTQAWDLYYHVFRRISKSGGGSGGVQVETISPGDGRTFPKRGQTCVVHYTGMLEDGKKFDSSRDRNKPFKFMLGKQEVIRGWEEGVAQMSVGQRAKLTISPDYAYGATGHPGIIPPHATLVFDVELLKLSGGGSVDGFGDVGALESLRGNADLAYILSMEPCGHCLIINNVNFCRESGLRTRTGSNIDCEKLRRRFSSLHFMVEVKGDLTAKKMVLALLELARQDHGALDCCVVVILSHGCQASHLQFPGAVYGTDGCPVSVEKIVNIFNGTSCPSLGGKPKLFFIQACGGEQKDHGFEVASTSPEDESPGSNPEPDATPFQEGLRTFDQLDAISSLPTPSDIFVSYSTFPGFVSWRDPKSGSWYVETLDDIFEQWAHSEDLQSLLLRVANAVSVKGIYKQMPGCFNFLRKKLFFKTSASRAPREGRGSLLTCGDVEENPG

Regarding “FRBL-ΔCaspase-9 fusion encoded by pBP0463 (pSH1-FRBL.dCaspase9.T2A)”, the IC50 of rapamycin or C7-isopropoxy-rapamycin for loss of constitutive SRα-SEAP reporter activity (cell death), transfected 293 cells in assay [1] is 3 nM.
As to “FKBP12v36-ΔCaspase-9 encoded by the retroviral vectors pSFG-iC9.T2A-ΔCD19 (pBP0220) and its FRBL derivatives pBP0755, pBP0756, pBP0757”, in assay [2], the rapamycin concentration without effect in the SRα-SEAP assay, transfected 293 cells was more than 1000 nM.
“MyD88-CD40 fused to wild-type FKBP12 and FRBL, encoded by pBP1440”: in [3], the EC50 of rapamycin or isobutyloxyrapamycin in the NF-κB SeAP reporter assay, transfected 293T cells is less than 1 nM.
For the substance “Inducible Caspase-9 (FKBP-tagged Caspase-9) as used in Example 17”, the decrease of constitutive SRα-SEAP activity with rapamycin, transfected 293 cells (% decrease of SEAP activity) in [4] and in assay [5] was 50 each time.
Turning to “FKBP.FRB.ΔC9 encoded by pBP1311 (pSFG.FKBP.FRB.ΔC9.T2A-ΔCD19)”, the lowest rapamycin concentration with high activity (caspase 3/7 IncuCyte assay and SRα-SEAP assay), transfected 293 cells in assay [6] was 100 pM.
Substance “FKBP12v36-ΔCaspase-9 fusion encoded by pBP0044 (pSH1-iCaspase9wt)” registered an IC50 of rapamycin or C7-isopropoxy-rapamycin for loss of constitutive SRα-SEAP reporter activity (cell death), transfected 293 cells in assay [7] of 3 nM.
Turning to “Two FRBL domains fused to ΔCaspase-9, encoded by pBP0668 (pSFG-FRBlx2.Caspase9.2A-Q.8stm.CD3zeta)”, the rapamycin level giving elimination of CD34+CD19+ doubly transduced primary T cells (flow cytometry, 24 h) in assay [8] came to 2 nM.
Regarding “FRB.FKBP.ΔC9 encoded by pBP1310 (pSFG.FRB.FKBP.ΔC9.T2A-ΔCD19)”, the lowest rapamycin concentration with high activity (caspase 3/7 IncuCyte assay and SRα-SEAP assay), transfected 293 cells in assay [9] was 100 pM.

The values above are taken from patent publication US20170166877A1.
